# Assay results taken from patent US5126134A, “Pharmaceutically active combination” (Ciba-Geigy Corporation, priority 1988, dated 1992).
# Legend:
# [1] = test system: preformed non-radioactive thrombi in the jugular vein; assay: Rabbit jugular vein thrombosis model: inhibition of thrombus accretion during thrombolysis with t-PA; type: in vivo, New Zealand white rabbits; details: FIG. 1; three hours infusion of t-PA alone or along with heparin (0.75 mg/kg)
# Method: The experiments are performed with New Zealand white rabbits (weighing 2.3-3.5 kg) anaesthesized by intravenous (marginal ear vein) injection of 30 mg/kg sodium pentobarbital. Through a paramedical incision of the neck, the jugular veins and the right carotid artery are exposed. The right carotid artery is cannulated with a 1.5 mm diameter polyethylene cannula for blood sampling. The two jugular veins are isolated, cleared over a distance of 2 cm, small side branches are ligated. Each jugular segment is emptied of blood and blood flow is temporarily occluded both proximally and distally by two angiostaths, 1.5 cm apart. A 10 cm length 3.0 TiCron braided polyester suture, presoaked in a collagen solution, is introduced lengthwise in the lumen of the isolated jugular vein for a distance of 4 cm to avoid the embolization of the thrombus to be produced. […] The effects of standard heparin and recombinant desulfato hirudin in preventing thrombus extension during thrombolysis with t-PA are assessed as their ability to inhibit the accretion of ^125 I-fibrinogen onto autologous non-radioactive thrombi preformed in the jugular vein of rabbits. […] The ratio of the radioactivity of the thrombus to the circulating fibrinogen radioactivity is used to quantify thrombus size, which is then expressed as μg or ^125 I-fibrinogen accreted onto the thrombus.
# [2] = test system: 125I-fibrinogen labelled thrombi in the jugular vein; assay: Rabbit jugular vein thrombosis model: enhancement of t-PA induced lysis; type: in vivo, New Zealand white rabbits; details: 0.5 mg t-PA infused i.v. over 3 hours, mean of n animals
# Method: The experiments are performed with New Zealand white rabbits (weighing 2.3-3.5 kg) anaesthesized by intravenous (marginal ear vein) injection of 30 mg/kg sodium pentobarbital. Through a paramedical incision of the neck, the jugular veins and the right carotid artery are exposed. The right carotid artery is cannulated with a 1.5 mm diameter polyethylene cannula for blood sampling. The two jugular veins are isolated, cleared over a distance of 2 cm, small side branches are ligated. Each jugular segment is emptied of blood and blood flow is temporarily occluded both proximally and distally by two angiostaths, 1.5 cm apart. A 10 cm length 3.0 TiCron braided polyester suture, presoaked in a collagen solution, is introduced lengthwise in the lumen of the isolated jugular vein for a distance of 4 cm to avoid the embolization of the thrombus to be produced. 150 μl of citrated rabbit blood containing 5 μl of ^125 I-fibrinogen (approx. 500 000 cpm) is then aspirated in a 1 ml tubercoline syringe containing 50 μl (5 I.U.) of thrombin and 10 μl of CaCl2 (0.25M). […] At the end of the infusion, the thrombi remaining in the vessel are removed and their size is determined by measuring the amount of residual ^125 I-labeled fibrinogen remaining in the thrombi and comparing the results with those of the saline controls.
molecule,measurement,setting,value
"t-PA: tissue-type plasminogen activator derived from melanoma cell cultures (BioResponse); infused with saline (protein, UniProt P00750 36-562, looked up, melanoma cell derived, infused with saline) Tissue-type plasminogen …: SYQVICRDEKTQMIYQQHQSWLRPVLRSNRVEYCWCNSGRAQCHSVPVKSCSEPRCFNGGTCQQALYFSDFVCQCPEGFAGKCCEIDTRATCYEDQGISYRGTWSTAESGAECTNWNSSALAQKPYSGRRPDAIRLGLGNHNYCRNPDRDSKPWCYVFKAGKYSSEFCSTPACSEGNSDCYFGNGSAYRGTHSLTESGASCLPWNSMILIGKVYTAQNPSAQALGLGKHNYCRNPDGDAKPWCHVLKNRRLTWEYCDVPSCSTCGLRQYSQPQFRIKGGLFADIASHPWQAAIFAKHRRSPGERFLCGGILISSCWILSAAHCFQERFPPHHLTVILGRTYRVVPGEEEQKFEVEKYIVHKEFDDDTYDNDIALLQLKSDSSRCAQESSVVRTVCLPPADLQLPDWTECELSGYGKHEALSPFYSERLKEAHVRLYPSSRCTSQHLLNRTVTDNMLCAGDTRSGGPQANLHDACQGDSGGPLVCLNDGRMTLVGIISWGLGCGQKDVPGVYTKVTNYLDWIRDNMRP",125I-fibrinogen accreted onto the thrombus,[1],52 µg
same,% lysis,"[2]; First set of experiments, hirudin 1 mg/kg",44%
same,% lysis,"[2]; Second set of experiments, heparin 0.75 mg/kg",37%
